Experiments:
[1] = biological target: T1, Flag-tagged Tsg101, wild type (UniProt Q61187)
T1 sequence: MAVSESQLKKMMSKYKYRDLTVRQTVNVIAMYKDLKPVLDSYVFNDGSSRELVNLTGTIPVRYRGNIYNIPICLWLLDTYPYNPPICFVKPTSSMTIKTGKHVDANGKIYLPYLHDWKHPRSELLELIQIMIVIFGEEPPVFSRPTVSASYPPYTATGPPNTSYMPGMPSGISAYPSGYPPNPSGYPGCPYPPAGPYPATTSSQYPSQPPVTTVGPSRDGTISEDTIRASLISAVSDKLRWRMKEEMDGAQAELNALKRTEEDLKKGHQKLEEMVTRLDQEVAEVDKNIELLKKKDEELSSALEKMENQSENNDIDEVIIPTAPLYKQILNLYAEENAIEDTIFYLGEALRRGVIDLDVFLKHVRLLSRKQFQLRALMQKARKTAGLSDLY

[2] = biological target: T2, endogenous Tsg101 of HEK-293T cells, Q99816
T2 chain: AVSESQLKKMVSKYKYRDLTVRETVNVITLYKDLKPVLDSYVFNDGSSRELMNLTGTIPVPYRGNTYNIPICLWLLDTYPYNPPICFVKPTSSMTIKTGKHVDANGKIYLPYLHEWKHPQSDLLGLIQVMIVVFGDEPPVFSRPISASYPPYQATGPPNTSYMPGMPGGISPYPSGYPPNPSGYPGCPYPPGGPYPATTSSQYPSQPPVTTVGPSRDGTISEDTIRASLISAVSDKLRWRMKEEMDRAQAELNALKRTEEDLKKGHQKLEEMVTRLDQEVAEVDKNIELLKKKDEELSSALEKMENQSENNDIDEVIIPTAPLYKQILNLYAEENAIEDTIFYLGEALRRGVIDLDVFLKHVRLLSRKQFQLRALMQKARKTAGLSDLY

[3] = biological target: T3, Flag-tagged Tsg101, wild type (murine) (UniProt Q61187); experiment: cell-based or functional assay
T3 sequence (looked up): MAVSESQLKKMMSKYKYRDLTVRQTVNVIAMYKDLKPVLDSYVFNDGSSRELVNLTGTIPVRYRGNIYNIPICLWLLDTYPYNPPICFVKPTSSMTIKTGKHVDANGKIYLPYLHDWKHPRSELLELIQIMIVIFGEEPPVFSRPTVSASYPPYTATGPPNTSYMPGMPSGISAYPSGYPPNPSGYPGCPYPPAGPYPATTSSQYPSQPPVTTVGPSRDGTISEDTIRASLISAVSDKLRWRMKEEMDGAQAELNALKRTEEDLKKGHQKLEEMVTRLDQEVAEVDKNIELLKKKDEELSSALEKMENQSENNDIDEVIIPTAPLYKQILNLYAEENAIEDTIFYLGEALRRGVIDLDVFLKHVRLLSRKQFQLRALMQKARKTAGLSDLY

[4] = biological target: T4, Flag-tagged Tsg101, wild type, Q61187
T4 chain: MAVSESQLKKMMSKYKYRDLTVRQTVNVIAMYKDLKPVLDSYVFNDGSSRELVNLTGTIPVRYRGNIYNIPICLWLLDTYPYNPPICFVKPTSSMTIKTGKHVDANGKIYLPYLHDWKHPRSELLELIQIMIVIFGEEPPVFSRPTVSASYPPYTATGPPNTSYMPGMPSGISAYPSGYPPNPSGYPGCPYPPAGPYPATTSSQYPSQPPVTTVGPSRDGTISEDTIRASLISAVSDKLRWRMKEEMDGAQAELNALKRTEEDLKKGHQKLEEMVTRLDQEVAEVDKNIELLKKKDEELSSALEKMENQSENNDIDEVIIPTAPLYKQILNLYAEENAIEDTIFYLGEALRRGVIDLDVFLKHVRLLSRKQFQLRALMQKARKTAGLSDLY

| Molecule | in vitro ubiquitylation of immunoprecipitated Tsg101 (125I-ubiquitin) [1] | HIV-1 infectivity, single-cycle infection assay [2] | other results |
| --- | --- | --- | --- |
| C675A-hTa1 (HA-tagged) | only background ubiquitylation was observed with two RING mutants of hTa1 |  |  |
| H695A-Ta1 (HA-tagged) | only background ubiquitylation was observed with two RING mutants of hTa1 |  |  |
| Ta1 ΔPTAP/PSAP (HA-tagged hTa1 with the PTAP motifs deleted) (protein) MPLFFRKRKPSEEARKRLEYQMCLAKEAGADDILDISKCELSEIPFGAFATCKVLQKKVLIVHTNHLTSLLPKSCSLLSLATIKVLDLHDNQLTALPDDLGQLTALQVLNVERNQLMQLPRSIGNLTQLQTLNVKDNKLKELPDTVGELRSLRTLNISGNEIQRLPQMLAHVRTLEMLSLDASAMVYPPREVCGAGTAAILQFLCKESGLEYYPPSQYLLPILEQDGIENSRDSPDGPTDRFSREELEWQNRFSDYEKRKEQKMLEKLEFERRLELGQREHTQLLQQSSSQKDEILQTVKEEQSRLEQGLSEHQRHLDAERQRLQEQLKQTEQNISSRIQKLLQDNQRQKKSSEILKSLENERIRMEQLMSITQEETESLRRRDVASAMQQMLTESCKNRLIQMAYESQRQNLVQQACSSMAEMDERFQQILSWQQMDQNKAISQILQESAMQKAAFEALQVKKDLMHRQIRSQIKLIETELLQLTQLELKRKSLDTESLQEMISEQRWALSSLLQQLLKEKQQREEELREILTELEAKSETRQENYWLIQYQRLLNQKPLSLKLQEEGMERQLVALLEELSAEHYLPIFAHHRLSLDLLSQMSPGDLAKVGVSEAGLQHEILRRVQELLDAARIQPELKPPMGEVVPAELEVQASECVVCLEREAQMIFLNCGHVCCCQQCCQPLRTCPLCRQDIAQRLRIYHSS |  | mediated a relatively mild effect on viral infectivity |  |
| HA-tagged human Ta1, wild type (enzyme, not shown: small tags and cut ends) MPLFFRKRKPSEEARKRLEYQMCLAKEAGADDILDISKCELSEIPFGAFATCKVLQKKVLIVHTNHLTSLLPKSCSLLSLATIKVLDLHDNQLTALPDDLGQLTALQVLNVERNQLMQLPRSIGNLTQLQTLNVKDNKLKELPDTVGELRSLRTLNISGNEIQRLPQMLAHVRTLEMLSLDASAMVYPPREVCGAGTAAILQFLCKESGLEYYPPSQYLLPILEQDGIENSRDSPDGPTDRFSREELEWQNRFSDYEKRKEQKMLEKLEFERRLELGQREHTQLLQQSSSQKDEILQTVKEEQSRLEQGLSEHQRHLDAERQRLQEQLKQTEQNISSRIQKLLQDNQRQKKSSEILKSLENERIRMEQLMSITQEETESLRRRDVASAMQQMLTESCKNRLIQMAYESQRQNLVQQACSSMAEMDERFQQILSWQQMDQNKAISQILQESAMQKAAFEALQVKKDLMHRQIRSQIKLIETELLQLTQLELKRKSLDTESLQEMISEQRWALSSLLQQLLKEKQQREEELREILTELEAKSETRQENYWLIQYQRLLNQKPLSLKLQEEGMERQLVALLEELSAEHYLPIFAHHRLSLDLLSQMSPGDLAKVGVSEAGLQHEILRRVQELLDAARIQPELKPPMGEVVTPTAPQEPPESVRPSAPPAELEVQASECVVCLEREAQMIFLNCGHVCCCQQCCQPLRTCPLCRQDIAQRLRIYHSS |  | overexpression of hTa1 reduces infectivity by approximately 40% | decrease in GFP-Gag secretion into virus-like particles (VLPs), HEK-293T cells [3]: > 90%; HIV-1 infectivity, single-cycle infection assay [4]: when combined with an ectopic Tsg101, hTa1 exerted a significantly greater inhibitory effect; in vitro ubiquitylation of immunoprecipitated Tsg101 (125I-ubiquitin) [4]: Substantial Tsg101 ubiquitylation was observed in complexes pre-incubated with WT-hTa1 |
| ΔCC-hTa1 (HA-tagged hTa1 with the coiled-coil deleted) (protein) MPLFFRKRKPSEEARKRLEYQMCLAKEAGADDILDISKCELSEIPFGAFATCKVLQKKVLIVHTNHLTSLLPKSCSLLSLATIKVLDLHDNQLTALPDDLGQLTALQVLNVERNQLMQLPRSIGNLTQLQTLNVKDNKLKELPDTVGELRSLRTLNISGNEIQRLPQMLAHVRTLEMLSLDASAMVYPPREVCGAGTAAILQFLCKESGLEYYPPSQYLLPILEQDGIENSRDSPDGPTDRFSREELEWQNRFSDYEKRKEQKMLEKLEFERRLELGQREHTQLLQQSSSQKDEILQTVKEEQSRLEQGLSEHQRHLDAERQRLQEQLKQTEQNISSRIQKLLQDNQRQKKSSEILKSLENERIRMEQLMSITQEETESLRRRDVASAMQQMLTESCKNRLIQMAYESQRQNLVQQACSSMAEMDERFQQILSWQQMDQNKAISQILQESAMQKAAFEALQVKKDLMHRQIRSQIKLEELSAEHYLPIFAHHRLSLDLLSQMSPGDLAKVGVSEAGLQHEILRRVQELLDAARIQPELKPPMGEVVTPTAPQEPPESVRPSAPPAELEVQASECVVCLEREAQMIFLNCGHVCCCQQCCQPLRTCPLCRQDIAQRLRIYHSS |  | RING or CC mutants of hTa1 potently inhibited HIV-1 infectivity even in the absence of an ectopic Tsg101 |  |

— patent publication US20070077628A1
